Experimental data taken from patent publication US20180030151A1.
Like-named read-outs stand apart in the source and are kept apart here.

Assays:
[1] = molecular target: recombinant human TFPI (tissue factor pathway inhibitor) (human) (UniProt P10646); test: cell-based or functional assay
[2] = molecular target: recombinant human TFPI (tissue factor pathway inhibitor) (human) (UniProt P10646)
[3] = molecular target: recombinant human TFPI (tissue factor pathway inhibitor) (human) (UniProt P10646); test: cell-based or functional assay; remark: listed apart in the source
[4] = molecular target: recombinant human TFPI (tissue factor pathway inhibitor) (human) (UniProt P10646); test: cell-based or functional assay; remark: listed apart in the source
[5] = molecular target: recombinant human TFPI (tissue factor pathway inhibitor) (human) (UniProt P10646); remark: listed apart in the source
[6] = molecular target: recombinant human TFPI (tissue factor pathway inhibitor) (human) (UniProt P10646); remark: listed apart in the source
[7] = molecular target: recombinant human TFPI (tissue factor pathway inhibitor) (human) (UniProt P10646); test: cell-based or functional assay; remark: listed apart in the source

B1: mAb2021 (anti-TFPI Ab, Novo Nordisk) (antibody, from another filing, V domains shown)
VH: EVQLVESGGGLVKPGGSLRLSCAASGFTFSNYAMSWVRQTPEKRLEWVATISRSGSYSYFPDSVQGRFTISRDNAKNSLYLQMNSLRAEDTAVYYCARLGGYDEGDAMDSWGQGTTVTVSS
VL: DIVMTQTPLSLSVTPGQPASISCKSSQSLLESDGKTYLNWYLQKPGQSPQLLIYLVSILDSGVPDRFSGSGSGTDFTLKISRVEAEDVGVYYCLQATHFPQTFGGGTKVEIKR
% of Normalized, TF/FVIIa/FX complex assay (FX 5 nM), Ab 3.13 nM [1]: 5.7%
% of Normalized, TF/FVIIa/FX complex assay (FX 5 nM), Ab 6.25 nM [1]: 6.1%
% of Normalized, TF/FVIIa/FX complex assay (FX 5 nM), Ab 12.5 nM [1]: 10.1%
% of Normalized, TF/FVIIa/FX complex assay (FX 5 nM), Ab 25 nM [1]: 42.5%
% of Normalized, TF/FVIIa/FX complex assay (FX 5 nM), Ab 50 nM [1]: 90.6%
% of Normalized, TF/FVIIa/FX complex assay (FX 5 nM), Ab 100 nM [1]: 99.4%
% of Normalized, TF/FVIIa/FX complex assay, Ab 1.56 nM [1]: 13.6%
% of Normalized, TF/FVIIa/FX complex assay, Ab 3.13 nM [1]: 15.7%
% of Normalized, TF/FVIIa/FX complex assay, Ab 6.25 nM [1]: 18.2%
% of Normalized, TF/FVIIa/FX complex assay, Ab 12.5 nM [1]: 23.7%
% of Normalized, TF/FVIIa/FX complex assay, Ab 25 nM [1]: 100%
% of Normalized, TF/FVIIa/FX complex assay, Ab 50 nM [1]: 101%
% of Normalized, TF/FVIIa/FX complex assay, Ab 100 nM [1]: 102%
A405, TF/FVIIa/FX complex assay (FX 5 nM), Ab 1.56 nM [1]: 0.043
A405, TF/FVIIa/FX complex assay (FX 5 nM), Ab 3.13 nM [1]: 0.047
A405, TF/FVIIa/FX complex assay (FX 5 nM), Ab 6.25 nM [1]: 0.05
A405, TF/FVIIa/FX complex assay (FX 5 nM), Ab 12.5 nM [1]: 0.082
A405, TF/FVIIa/FX complex assay (FX 5 nM), Ab 25 nM [1]: 0.344
A405, TF/FVIIa/FX complex assay (FX 5 nM), Ab 50 nM [1]: 0.733
A405, TF/FVIIa/FX complex assay (FX 5 nM), Ab 100 nM [1]: 0.805
A405, TF/FVIIa/FX complex assay, Ab 1.56 nM [1]: 0.125
A405, TF/FVIIa/FX complex assay, Ab 3.13 nM [1]: 0.145
A405, TF/FVIIa/FX complex assay, Ab 6.25 nM [1]: 0.168
A405, TF/FVIIa/FX complex assay, Ab 12.5 nM [1]: 0.218
A405, TF/FVIIa/FX complex assay, Ab 25 nM [1]: 0.918
A405, TF/FVIIa/FX complex assay, Ab 50 nM [1]: 0.929
A405, TF/FVIIa/FX complex assay, Ab 100 nM [1]: 0.937
FXa assay % of FXa alone, 2.5 nM Ab, 10 nM TFPI [2]: 12.3%
FXa assay % of FXa alone, 5 nM Ab, 10 nM TFPI [2]: 90%
FXa assay % of FXa alone, 10 nM Ab, 10 nM TFPI [2]: 96.5%
FXa assay % of FXa alone, 20 nM Ab, 10 nM TFPI [2]: 88.8%
FXa assay OD, 2.5 nM Ab, 10 nM TFPI [2]: 0.0945
FXa assay OD, 5 nM Ab, 10 nM TFPI [2]: 0.693
FXa assay OD, 10 nM Ab, 10 nM TFPI [2]: 0.743
FXa assay OD, 20 nM Ab, 10 nM TFPI [2]: 0.683
A405, TF/FVIIa/FX complex assay, Ab 1.56 nM [3]: 0.151
A405, TF/FVIIa/FX complex assay, Ab 3.13 nM [3]: 0.171
A405, TF/FVIIa/FX complex assay, Ab 6.25 nM [3]: 0.18
A405, TF/FVIIa/FX complex assay, Ab 12.5 nM [3]: 0.233
A405, TF/FVIIa/FX complex assay, Ab 25 nM [3]: 0.955
A405, TF/FVIIa/FX complex assay, Ab 50 nM [3]: 0.951
A405, TF/FVIIa/FX complex assay, Ab 100 nM [3]: 0.966
A405, TF/FVIIa/FX complex assay, Ab 1.56 nM [4]: 0.044
A405, TF/FVIIa/FX complex assay, Ab 3.13 nM [4]: 0.046
A405, TF/FVIIa/FX complex assay, Ab 6.25 nM [4]: 0.062
A405, TF/FVIIa/FX complex assay, Ab 12.5 nM [4]: 0.105
A405, TF/FVIIa/FX complex assay, Ab 25 nM [4]: 0.462
A405, TF/FVIIa/FX complex assay, Ab 50 nM [4]: 0.73
A405, TF/FVIIa/FX complex assay, Ab 100 nM [4]: 0.852
FXa assay % of FXa alone, 2.5 nM Ab, 10 nM TFPI [5]: 6.2%
FXa assay % of FXa alone, 5 nM Ab, 10 nM TFPI [5]: 16.4%
FXa assay % of FXa alone, 10 nM Ab, 10 nM TFPI [5]: 87.5%
FXa assay % of FXa alone, 20 nM Ab, 10 nM TFPI [5]: 84.6%
FXa assay OD, 2.5 nM Ab, 10 nM TFPI [5]: 0.0475
FXa assay OD, 5 nM Ab, 10 nM TFPI [5]: 0.125
FXa assay OD, 20 nM Ab, 10 nM TFPI [5]: 0.644
FXa assay % of FXa alone, 2.5 nM Ab, 10 nM TFPI [6]: 5.6%
FXa assay % of FXa alone, 5 nM Ab, 10 nM TFPI [6]: 10.7%
FXa assay % of FXa alone, 10 nM Ab, 10 nM TFPI [6]: 77.7%
FXa assay % of FXa alone, 20 nM Ab, 10 nM TFPI [6]: 84.5%
FXa assay OD, 2.5 nM Ab, 10 nM TFPI [6]: 0.0485
FXa assay OD, 5 nM Ab, 10 nM TFPI [6]: 0.0935
FXa assay OD, 10 nM Ab, 10 nM TFPI [6]: 0.676
FXa assay OD, 20 nM Ab, 10 nM TFPI [6]: 0.735
% of Normalized, TF/FVIIa/FX complex assay, Ab 1.56 nM [7]: 15%
% of Normalized, TF/FVIIa/FX complex assay, Ab 3.13 nM [7]: 15.6%
% of Normalized, TF/FVIIa/FX complex assay, Ab 6.25 nM [7]: 17%
% of Normalized, TF/FVIIa/FX complex assay, Ab 12.5 nM [7]: 26.3%
% of Normalized, TF/FVIIa/FX complex assay, Ab 25 nM [7]: 102%
% of Normalized, TF/FVIIa/FX complex assay, Ab 50 nM [7]: 104%
% of Normalized, TF/FVIIa/FX complex assay, Ab 100 nM [7]: 104%
